The text below walks through data of paper PMC6197187.

The target in the assay is Recombinant human Tau-40 protein (human) (UniProt P10636). Put plainly: solution binding assay, then SDS-PAGE and western blotting; 1 µg tau and 1 µg recombinant apoE incubated 1 h at 37 °C in 20 µl PBS (pH 7.4); ended with sample buffer without 2-mercaptoethanol, boiled 5 min; immunoblot for tau (HT7) and apoE. A general note: A western blot detects proteins with antibodies after separation by electrophoresis.
Sequence of Recombinant human Tau-40 protein (human) (P10636 other isoform, or with tags, fused parts or gaps): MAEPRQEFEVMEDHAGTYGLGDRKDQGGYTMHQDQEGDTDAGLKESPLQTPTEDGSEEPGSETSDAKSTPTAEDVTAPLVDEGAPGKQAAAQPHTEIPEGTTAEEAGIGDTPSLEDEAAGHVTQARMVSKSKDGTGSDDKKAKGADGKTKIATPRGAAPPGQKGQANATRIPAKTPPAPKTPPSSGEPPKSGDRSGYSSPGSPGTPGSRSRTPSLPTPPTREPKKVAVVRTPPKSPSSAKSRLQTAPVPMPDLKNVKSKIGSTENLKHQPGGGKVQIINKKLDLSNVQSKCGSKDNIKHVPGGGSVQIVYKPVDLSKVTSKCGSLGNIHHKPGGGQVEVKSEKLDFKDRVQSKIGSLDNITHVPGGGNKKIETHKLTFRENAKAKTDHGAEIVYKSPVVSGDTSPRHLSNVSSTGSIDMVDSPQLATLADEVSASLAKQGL

In the case of “Recombinant human apoE2 protein (from UniProt P02649 19-317) (natural protein)”, the N of band A came out at 2 tau per apoE and the N of band B was found to be 2 apoE per tau.
